Consider six molecules from patent publication US20240287202A1 (XYPHOS BIOSCIENCES, published 2024).

Usually EC50 (read off the curve) stands for the midpoint of the concentration-response curve. A higher EC50 (read off the curve) goes with a need for much substance. What is called Kd is the concentration at which binding is half-saturated. Higher therefore signals weaker binding.

The target of experiment [1] is T1, mouse NKG2D (mouse, UniProt O54709 94-232, limits assumed).
T1 construct: also called mouse wild-type NKG2D
T1 sequence (looked up): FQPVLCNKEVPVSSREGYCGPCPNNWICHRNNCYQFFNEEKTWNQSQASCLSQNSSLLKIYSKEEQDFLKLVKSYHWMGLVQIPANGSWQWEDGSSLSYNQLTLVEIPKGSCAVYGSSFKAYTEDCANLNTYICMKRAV
Briefly: ELISA on mouse NKG2D, absorbance against nM MicAbody.

Experiment [2] has as its target T2, Fc-iNKG2D.YA (NKG2D ectodomain Y152A fused to the C-terminus of human IgG1 Fc) (human, UniProt P26718 78-216).
T2 construct: range 78-216; it is not tied by words to this Fc fusion; not shown: human IgG1 Fc
T2 sequence: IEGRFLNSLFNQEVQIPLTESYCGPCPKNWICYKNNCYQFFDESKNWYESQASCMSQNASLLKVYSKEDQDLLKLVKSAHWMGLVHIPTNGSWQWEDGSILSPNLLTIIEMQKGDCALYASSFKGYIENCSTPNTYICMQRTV
Kind of experiment: Octet BLI; Fc-iNKG2D.YA captured on AHC tips, two-fold dilution series of MicAbody from 50 nM. The text has this:
The y-axes corresponding to binding responses were set to the same scale for all sensograms.
On the technique in general: Biolayer interferometry detects binding as a change in optical thickness at a sensor tip.

The target in experiment [3] is T2, Fc-iNKG2D.YA (NKG2D ectodomain Y152A …). Briefly: ELISA; wells coated with Fc-iNKG2D.YA, Rituximab.LC-U2S3 titrated, HRP anti-human kappa. Background: In an ELISA, binding on a coated surface is turned into a signal by an enzyme label.
Experiment [4] concerns the target T3, A1-A2 domain of human MICA*001 with C-terminal 6x-His tag (monomer) (human, UniProt Q29983 24-205).
T3 construct: range 24-205; also called MIC-His ligand
T3 sequence: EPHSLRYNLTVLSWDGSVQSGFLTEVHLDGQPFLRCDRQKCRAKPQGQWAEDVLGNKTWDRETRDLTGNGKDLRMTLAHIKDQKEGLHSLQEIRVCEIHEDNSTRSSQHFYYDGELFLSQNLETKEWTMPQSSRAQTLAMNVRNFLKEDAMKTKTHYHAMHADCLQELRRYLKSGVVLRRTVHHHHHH
Kind of experiment: Octet BLI; Fc-wtNKG2D captured on anti-human IgG Fc (AHC) tips, dilution series of His-tagged monomeric ligand. The text has this: Note that all axes are to the same scale (Binding-0 nm, 0.4 nm. 0.8 nm, 1.2 nm (y-axis); Time-0 s, 50 s, 100 s, 150 s, 200 s, 250 s, 300 s, 350 s (x-axis). Data is representative of a single experiment.

Experiment [5] deals with T4, MICB-Fc (R&D Systems) (human, UniProt Q29980 23-298, limits assumed).
T4 construct: Bought; also called Ligand-Fc fusion; not shown: Fc of the bought fusion; not described
T4 sequence (looked up): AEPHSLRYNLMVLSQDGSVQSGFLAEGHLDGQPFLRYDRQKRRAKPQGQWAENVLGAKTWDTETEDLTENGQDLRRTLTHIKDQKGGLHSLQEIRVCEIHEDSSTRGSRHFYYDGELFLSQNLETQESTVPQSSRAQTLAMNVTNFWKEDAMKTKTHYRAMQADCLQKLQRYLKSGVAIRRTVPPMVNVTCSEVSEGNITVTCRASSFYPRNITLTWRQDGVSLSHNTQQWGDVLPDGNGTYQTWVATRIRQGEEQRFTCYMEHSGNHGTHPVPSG
Kind of experiment: ELISA; ligand-Fc coated, biotinylated Fc-wtNKG2D, streptavidin-HRP (legend: the Fc-NKG2D is titrated; axis on the sheet: nM ligand-Fc).

Experiment [6] concerns the target T5, ULBP1-Fc (R&D Systems) (human, UniProt Q9BZM6 26-216).
T5 construct: Bought; also called Ligand-Fc fusion; not shown: Fc of the bought fusion; not described
T5 sequence (looked up): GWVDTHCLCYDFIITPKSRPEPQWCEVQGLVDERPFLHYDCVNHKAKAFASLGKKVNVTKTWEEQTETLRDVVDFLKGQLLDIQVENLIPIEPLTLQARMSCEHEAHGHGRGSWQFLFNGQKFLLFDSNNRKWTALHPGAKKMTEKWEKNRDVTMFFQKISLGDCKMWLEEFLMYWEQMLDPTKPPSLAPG
The description is as above.

Experiment [7] concerns the target T6, MICA-Fc (R&D Systems) (human, UniProt Q29983 24-308, limits assumed).
T6 construct: Bought; also called Ligand-Fc fusion; not shown: Fc of the bought fusion; not described
T6 sequence (looked up): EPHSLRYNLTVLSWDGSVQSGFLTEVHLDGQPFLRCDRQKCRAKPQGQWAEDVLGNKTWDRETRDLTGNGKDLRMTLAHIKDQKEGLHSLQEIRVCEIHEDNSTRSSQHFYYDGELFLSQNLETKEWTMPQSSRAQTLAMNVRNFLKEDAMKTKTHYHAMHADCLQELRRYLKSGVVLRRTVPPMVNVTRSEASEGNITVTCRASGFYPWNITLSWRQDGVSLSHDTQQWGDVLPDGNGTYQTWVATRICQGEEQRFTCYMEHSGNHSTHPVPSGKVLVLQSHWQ
The description is as above.

Experiment [8] addresses T7, ULBP3-Fc (R&D Systems) (human, UniProt Q9BZM4 30-217).
T7 construct: Bought; also called Ligand-Fc fusion; not shown: Fc of the bought fusion; not described
T7 sequence (looked up): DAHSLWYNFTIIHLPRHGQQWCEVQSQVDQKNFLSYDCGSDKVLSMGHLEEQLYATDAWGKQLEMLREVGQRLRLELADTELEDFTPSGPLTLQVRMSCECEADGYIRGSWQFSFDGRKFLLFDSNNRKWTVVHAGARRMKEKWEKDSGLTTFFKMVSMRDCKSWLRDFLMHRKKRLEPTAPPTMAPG
The experiment is described as above.

Experiment [9] concerns the target T8, A1-A2 domain of human MICB with C-terminal 6x-His tag (monomer) (human, UniProt Q29980 24-205).
T8 construct: range 24-205; also called MIC-His ligand
T8 sequence: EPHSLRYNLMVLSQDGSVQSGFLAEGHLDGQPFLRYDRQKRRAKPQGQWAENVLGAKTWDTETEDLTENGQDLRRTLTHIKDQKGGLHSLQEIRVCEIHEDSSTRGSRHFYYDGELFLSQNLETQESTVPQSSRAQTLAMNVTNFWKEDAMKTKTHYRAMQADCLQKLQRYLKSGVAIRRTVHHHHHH
Kind of experiment: Octet BLI, response against concentration (legend: monomeric ligands; axis on the sheet: nM Fc-NKG2D.wt).

In experiment [10] the target is T9, A1-A2 domain of human ULBP3 with C-terminal 6x-His tag (monomer) (human, UniProt Q9BZM4 30-212).
T9 construct: range 30-212; also called MIC-His ligand
T9 sequence: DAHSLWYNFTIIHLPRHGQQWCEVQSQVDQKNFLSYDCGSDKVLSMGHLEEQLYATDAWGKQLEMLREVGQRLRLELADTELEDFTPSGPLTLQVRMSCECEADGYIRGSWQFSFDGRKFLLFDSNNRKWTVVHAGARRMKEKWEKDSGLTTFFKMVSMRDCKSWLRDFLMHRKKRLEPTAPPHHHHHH
The description is as above.

The target in experiment [11] is T10, A1-A2 domain of human ULBP2 with C-terminal 6x-His tag (monomer) (human, UniProt Q9BZM5 29-212).
T10 construct: range 29-212; also called wild-type ULBP2; MIC-His ligand
T10 sequence: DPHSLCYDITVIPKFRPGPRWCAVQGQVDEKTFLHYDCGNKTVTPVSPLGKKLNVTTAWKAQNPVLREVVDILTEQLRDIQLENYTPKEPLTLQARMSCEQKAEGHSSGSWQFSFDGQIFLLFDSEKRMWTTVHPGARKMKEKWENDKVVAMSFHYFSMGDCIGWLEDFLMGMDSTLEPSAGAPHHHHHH
Kind of experiment: Octet BLI; Fc-wtNKG2D captured on AHC tips, dilution series of His-tagged monomeric ligand. The text has this: (§1) YA. […] YA were captured with anti-human IgG Fc capture (AHC) biosensor tips then associated with a dilution series of ligand. Data are from single experiments.

Experiment [12] addresses T11, His-tagged monomeric ULBP2 R81W (human, UniProt Q9BZM5 29-212).
T11 construct: range 29-212; Construct limits are stated only for wild-type ULBP2-His; position 81 counts on the mature protein, not on the UniProt entry
T11 sequence: T10 sequence with R78W
The experiment is described as above.
Source text: as §1

Experiment [13] concerns the target Fc-iNKG2D.YA (NKG2D ectodomain Y152A fused to the C-terminus of human IgG1 Fc) (human) (UniProt P26718). Briefly: ELISA; wells coated with Fc-iNKG2D.YA, R3Mab heavy-chain MicAbody titrated.
The target in experiment [14] is Fc-wtNKG2D (wild-type NKG2D ectodomain fused to the C-terminus of human IgG1 Fc) (human) (UniProt P26718). Briefly: ELISA; wells coated with Fc-wtNKG2D, R3Mab heavy-chain MicAbody titrated.

Residue numbers refer to the chain shown, from its start. Numbers in names are those of the source.

In experiment [1], “Trastuzumab.LC-Rae1b (bispecific antibody)” came in with a concentration giving a half-maximal response (EC50 (read off the curve)) of 1000 pM.

B1: Rituximab.LC-U2S3 MicAbody (U2S3 A1-A2 domain fused to the C-terminus of the rituximab kappa light chain) (bispecific antibody)
heavy: QVQLQQPGAELVKPGASVKMSCKASGYTFTSYNMHWVKQTPGRGLEWIGAIYPGNGDTSYNQKFKGKATLTADKSSSTAYMQLSSLTSEDSAVYYCARSTYYGGDWYFNVWGAGTTVTVSAA
light (part 1 of 2): QIVLSQSPAILSASPGEKVTMTCRASSSVSYIHWFQQKPGSSPKPWIYATSNLASGVPVRFSGSGSGTSYSLTISRVEAEDAATYYCQQWTSNPPTFGGGTKLEIK
light (part 2 of 2): APTSSSGGGGSEPHSLSYDITVIPKFRPGPRWCAVQGQVDEKTFLHYDCGQKTVTPVSPLGKKLQVTTAWKAQNPVLREVVDILTEQLWDIQLENYTPKEPLTLQARMSCEQKAEGHSSGSWQFSFDGQIFLLFDSEKRMWTTVHPGARKMKEKWENDKVVATKLYLWSMGDCIGWLEDFLMGMDSTLEPS
notes: also called Rit-S3; Ritux-S3; not shown: human IgG1 heavy-chain constant region, ADCC-deficient; human kappa light-chain constant region
Turning to B1, in experiment [2], binding was put at a Kd of 10 pM. The “EC50 (read off the curve)” value in experiment [3] was roughly 30 pM.

B2: Fc-wtNKG2D (wild-type NKG2D ectodomain fused to the C-terminus of human IgG1 Fc) (Fc fusion)
chain: T2 sequence with A79Y
notes: range 78-216; Dimeric secreted protein from Expi293 cells; also called Fc-NKG2D; not shown: human IgG1 Fc
B2: the binding result in [4], in [5], in experiment [6], in [7], in experiment [8] and in experiment [9] was “binds” throughout. The binding result in experiment [10] was “binds”. The Kd in experiment [11] was 350000 pM; in experiment [12] it was 8000 pM.

B3: R3Mab (anti-FGFR3) heavy-chain C-terminal fusion of U2S3 (MicAbody) (bispecific antibody, part only; not given: R3Mab variable regions and Fc, IgG1, not shown: a dimerising Fc or GST)
heavy, part: GGGSEPHSLSYDITVIPKFRPGPRWCAVQGQVDEKTFLHYDCGQKTVTPVSPLGKKLQVTTAWKAQNPVLREVVDILTEQLWDIQLENYTPKEPLTLQARMSCEQKAEGHSSGSWQFSFDGQIFLLFDSEKRMWTTVHPGARKMKEKWENDKVVATKLYLWSMGDCIGWLEDFLMGMDSTLEPS
With B3, in experiment [13], the EC50 (read off the curve) was 20 pM.

B4: R3Mab (anti-FGFR3) heavy-chain C-terminal fusion of wild-type ULBP2 (MicAbody) (bispecific antibody, part only; not given: R3Mab variable regions and Fc, IgG1, not shown: a dimerising Fc or GST)
heavy, part: GGGSDPHSLCYDITVIPKFRPGPRWCAVQGQVDEKTFLHYDCGNKTVTPVSPLGKKLNVTTAWKAQNPVLREVVDILTEQLRDIQLENYTPKEPLTLQARMSCEQKAEGHSSGSWQFSFDGQIFLLFDSEKRMWTTVHPGARKMKEKWENDKVVAMSFHYFSMGDCIGWLEDFLMGMDSTLEPSAG
As to B4, the EC50 (read off the curve) in experiment [14] stood at 400 pM.

B5: R3Mab (anti-FGFR3) heavy-chain C-terminal fusion of ULBP2 R81W (MicAbody) (bispecific antibody, part only; not given: R3Mab variable regions and Fc, IgG1, not shown: a dimerising Fc or GST)
heavy, part: B4 heavy, part with R82W
Turning to B5, the EC50 (read off the curve) in experiment [14] amounted to 20 pM.
